Measurements from patent US20240116985A1, “STAPLED PEPTIDES AND METHODS THEREOF” (priority 2020, published 2024).
Starred links: 1 amine or outer side, 2 acyl side, 3 side chain; linkers in the order of their positions; H or OH if unused. Positions of bridges follow the written chain, without caps; N, C: chain ends. Non-standard residues stand in square brackets, D forms with d. Primed or numbered codes have the meaning given here. PyrS2″ = (S)-3-amino-1-((pent-4-en-1-yloxy)carbonyl)pyrrolidine-3-carboxylic acid (stapling residue), C=CCCCOC(=O)N1CC[C@@](N[*:1])(C(=O)[*:2])C1; B5(4) = 2,2-bis(4-pentenyl)glycine = 2-amino-2-(pent-4-en-1-yl)hept-6-enoic acid (stitching residue), C=CCCCC(CCCC=C)(N[*:1])C(=O)[*:2]; B5(5) = 2,2-bis(4-pentenyl)glycine, 2-amino-2-(pent-4-en-1-yl)hept-6-enoic acid (stitching residue), C=CCCCC(CCCC=C)(N[*:1])C(=O)[*:2]; TfeGA = (S)-2-amino-3-((carboxymethyl)(2,2,2-trifluoroethyl)amino)propanoic acid, O=C([C@H](CN(CC(=O)[*:3])CC(F)(F)F)N[*:1])[*:2]; B5(31) = 2-amino-2-(pent-4-en-1-yl)hept-6-enoic acid (bis-pentenylglycine, stitching residue), C=CCCCC(CCCC=C)(N[*:1])C(=O)[*:2]; B5(3) = 2,2-bis(4-pentenyl)glycine (stitching residue), C=CCCCC(CCCC=C)(N[*:1])C(=O)[*:2]; B5 = 2-amino-2-(pent-4-en-1-yl)hept-6-enoic acid, C=CCCCC(CCCC=C)(N[*:1])C(=O)[*:2]; Phe(3-COOH) = N[C@@H](Cc1cccc(C(=O)O)c1)C(=O)O; 2F3MeF = Cc1cccc(C[C@H](N[*:1])C(=O)[*:2])c1F; Phe(2-CF3) = N[C@@H](Cc1ccccc1C(F)(F)F)C(=O)O; Bip = N[C@@H](Cc1ccc(-c2ccccc2)cc1)C(=O)O; Dip = N[C@H](C(=O)O)C(c1ccccc1)c1ccccc1; Phe(2-Cl) = N[C@@H](Cc1ccccc1Cl)C(=O)O; Met(O2) = CS(=O)(=O)CC[C@H](N)C(=O)O; Bta = N[C@@H](Cc1csc2ccccc12)C(=O)O; Lys(iPr) = CC(C)NCCCC[C@H](N)C(=O)O; αAllylPro = C=CC[C@@]1(C(=O)O)CCCN1; tBuAla = CC(C)(C)C[C@H](N)C(=O)O; 3Thi = N[C@@H](Cc1ccsc1)C(=O)O; Cha = N[C@@H](CC1CCCCC1)C(=O)O; S8 = C=CCCCCCC[C@](C)(N)C(=O)O; Phg = N[C@H](C(=O)O)c1ccccc1; hSer = N[C@@H](CCO)C(=O)O; Aib = CC(C)(N)C(=O)O

target: full-length beta-Catenin (Uniprot ID P35222) (Homo sapiens (Human)) (UniProt P35222); assay: fluorescence polarization competition; full-length beta-catenin + 5FAM-TCF4(10-53) probe; peptide titrated
Target sequence in this assay (P35222 2-781 limits assumed): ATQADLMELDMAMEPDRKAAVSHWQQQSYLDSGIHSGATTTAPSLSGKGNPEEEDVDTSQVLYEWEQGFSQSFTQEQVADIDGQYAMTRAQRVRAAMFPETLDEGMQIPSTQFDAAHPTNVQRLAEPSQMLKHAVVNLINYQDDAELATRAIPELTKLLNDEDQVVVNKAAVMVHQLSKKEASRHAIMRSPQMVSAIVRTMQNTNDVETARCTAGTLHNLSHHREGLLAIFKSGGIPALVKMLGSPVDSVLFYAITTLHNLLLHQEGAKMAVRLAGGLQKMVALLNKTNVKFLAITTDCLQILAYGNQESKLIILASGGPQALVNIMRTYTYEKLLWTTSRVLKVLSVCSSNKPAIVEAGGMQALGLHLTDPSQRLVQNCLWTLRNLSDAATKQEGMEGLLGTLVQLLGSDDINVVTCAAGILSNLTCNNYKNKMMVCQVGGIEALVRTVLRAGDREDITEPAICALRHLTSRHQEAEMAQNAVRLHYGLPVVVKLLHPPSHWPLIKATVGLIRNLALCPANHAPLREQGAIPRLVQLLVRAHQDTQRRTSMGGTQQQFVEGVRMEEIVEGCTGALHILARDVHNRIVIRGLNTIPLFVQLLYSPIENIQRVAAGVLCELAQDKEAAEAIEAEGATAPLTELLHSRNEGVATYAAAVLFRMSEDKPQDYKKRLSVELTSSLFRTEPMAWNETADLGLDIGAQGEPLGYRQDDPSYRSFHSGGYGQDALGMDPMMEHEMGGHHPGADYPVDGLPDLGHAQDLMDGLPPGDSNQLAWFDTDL

Ac-[αAllylPro]D[tBuAla][B5(3)]D[TfeGA]AAFN[S8][3Thi][Bta]H-NH2 (staple 1-4, 4-11) [I-705] and Ac-[αAllylPro]D[Cha][B5(3)]D[TfeGA]AAFN[S8][3Thi][Bta]H-NH2 (staple 1-4, 4-11) [I-709] are within 1.5-fold of each other in EC50: 58 nM for the first, 54 nM for the second.

target: full-length beta-Catenin (Uniprot ID P35222) (Homo sapiens (Human)) (UniProt P35222); assay: fluorescence polarization competition; full-length beta-catenin with 5FAM-labeled TCF4 residues 10-53 probe as competitor
Target sequence in this assay (P35222 whole entry, the tested form may be a part): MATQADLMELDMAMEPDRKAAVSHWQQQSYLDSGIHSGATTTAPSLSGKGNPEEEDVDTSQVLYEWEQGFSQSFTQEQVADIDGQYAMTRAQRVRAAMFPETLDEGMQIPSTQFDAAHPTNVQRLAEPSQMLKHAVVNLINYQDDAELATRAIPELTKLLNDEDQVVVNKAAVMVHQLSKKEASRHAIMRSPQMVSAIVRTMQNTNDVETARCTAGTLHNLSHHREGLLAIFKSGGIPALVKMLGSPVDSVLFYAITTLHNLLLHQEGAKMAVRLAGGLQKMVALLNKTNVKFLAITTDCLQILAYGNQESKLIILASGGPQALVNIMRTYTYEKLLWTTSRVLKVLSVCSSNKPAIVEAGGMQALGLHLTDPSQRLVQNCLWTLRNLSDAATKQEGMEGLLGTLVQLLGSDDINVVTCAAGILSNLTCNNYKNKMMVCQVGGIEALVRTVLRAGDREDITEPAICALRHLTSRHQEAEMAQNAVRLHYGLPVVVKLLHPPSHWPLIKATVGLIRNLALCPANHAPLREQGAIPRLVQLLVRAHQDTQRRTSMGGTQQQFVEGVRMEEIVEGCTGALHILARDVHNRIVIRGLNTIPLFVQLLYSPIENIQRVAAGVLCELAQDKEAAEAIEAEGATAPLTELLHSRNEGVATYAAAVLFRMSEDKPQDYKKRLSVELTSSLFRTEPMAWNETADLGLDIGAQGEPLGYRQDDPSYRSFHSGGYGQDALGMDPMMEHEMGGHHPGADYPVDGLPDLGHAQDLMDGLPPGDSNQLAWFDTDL

Compared with Ac-[αAllylPro]D[tBuAla][B5]DEAAFN[S8][3Thi][Bta]-NH2 (staple 1-4, 4-11) [I-718], Ac-[αAllylPro]D[tBuAla][B5]DEAAFN[S8][3Thi][Bta]-NH2 (staple 1-4, 4-11) [I-719] is 2.2-fold lower in EC50: 82 nM for the first, 38 nM for the second. The second is the more potent here.

Going from Ac-[αAllylPro]DI[B5]DEAAFN[S8][3Thi][Bta]-NH2 (staple 1-4, 4-11) [I-720] to Ac-[αAllylPro]DI[B5]DEAAFN[S8][3Thi][Bta]-NH2 (staple 1-4, 4-11) [I-721], the EC50 falls from 75 nM to 46 nM (1.6-fold). The second is the more potent here.

First: Ac-[αAllylPro]DI[B5]DEAA[Cha]Q[S8]F[Bta]Q-NH2 (staple 1-4, 4-11) [I-722]
Second: Ac-[αAllylPro]DI[B5]DEAA[Bip]Q[S8]F[Bta]Q-NH2 (staple 1-4, 4-11) [I-723]
The EC50 of the first is 3.4-fold lower: 1130 nM for the first, 3830 nM for the second. The first is the more potent here.

Ac-[αAllylPro]DI[B5]DEAA[Dip]Q[S8]F[Bta]Q-NH2 (staple 1-4, 4-11) [I-725] and Ac-[αAllylPro]DI[B5]DEAA[Phg]Q[S8]F[Bta]Q-NH2 (staple 1-4, 4-11) [I-726] are the same in EC50: 5000 nM for the first, 5000 nM for the second.

target: full-length beta-Catenin (Uniprot ID P35222) (Homo sapiens (Human)) (UniProt P35222); assay: fluorescence polarization competition; 10 nM full-length beta-catenin, 10 nM 5FAM-TCF4(10-53) as competitor probe
Target sequence in this assay (P35222 2-781 limits assumed): as the sequence (P35222 2-781 limits assumed) above

Ac-[αAllylPro]D[tBuAla][B5(3)]D[Phe(3-COOH)]TAFL[PyrS2″][3Thi][Bta]A-NH2 (staple 1-4, 4-11) [I-2051] and Ac-[αAllylPro]D[tBuAla][B5(3)]D[Phe(3-COOH)]QAFF[PyrS2″][3Thi][Bta]A-NH2 (staple 1-4, 4-11) [I-2052] are within 1.5-fold of each other in IC50: 16 nM for the first, 12 nM for the second.

Going from Ac-[αAllylPro]D[tBuAla][B5(4)]D[Phe(3-COOH)]QAFV[PyrS2″][3Thi][Bta]A-NH2 (staple 1-4, 4-11) [I-2054] to Ac-[αAllylPro]D[tBuAla][B5(4)]D[Phe(3-COOH)]QAFL[PyrS2″][3Thi][Bta]L-NH2 (staple 1-4, 4-11) [I-2056], the IC50 rises from 5 nM to 16 nM (3.2-fold).

First: Ac-[αAllylPro]D[tBuAla][B5(4)]D[Phe(3-COOH)]QAFL[PyrS2″][2F3MeF][Bta]A-NH2 (staple 1-4, 4-11) [I-2057]
Second: Ac-[αAllylPro]D[tBuAla][B5(4)]D[Phe(3-COOH)]NAFL[PyrS2″][Phe(2-CF3)][Bta]A-NH2 (staple 1-4, 4-11) [I-2058]
The IC50 of the first is 1.7-fold higher: 17 nM for the first, 10 nM for the second.

Ac-[αAllylPro]D[tBuAla][B5(4)]D[Phe(3-COOH)]SAFL[PyrS2″][Phe(2-CF3)][Bta]A-NH2 (staple 1-4, 4-11) [I-2059] and Ac-[αAllylPro]D[tBuAla][B5(4)]D[Phe(3-COOH)]TAFL[PyrS2″][Phe(2-CF3)][Bta]A-NH2 (staple 1-4, 4-11) [I-2060] are within 1.5-fold of each other in IC50: 38 nM for the first, 56 nM for the second.

Ac-[αAllylPro]D[tBuAla][B5(4)]D[Phe(3-COOH)]AAFL[PyrS2″][Phe(2-Cl)][Bta][Met(O2)]-NH2 (staple 1-4, 4-11) [I-2062] and Ac-[αAllylPro]D[tBuAla][B5(4)]D[Phe(3-COOH)]AAFL[PyrS2″][Phe(2-CF3)][Bta][Met(O2)]-NH2 (staple 1-4, 4-11) [I-2063] are within 1.5-fold of each other in IC50: 41 nM for the first, 56 nM for the second.

First: Ac-[αAllylPro]N[Cha][B5(4)]DQ[Lys(iPr)]AFN[PyrS2″]F[Bta]A-NH2 (staple 1-4, 4-11) [I-2065]
Second: Ac-[αAllylPro]N[Cha][B5(5)]DQHAFN[PyrS2″]F[Bta][hSer]-NH2 (staple 1-4, 4-11) [I-2066]
The IC50 of the first is 2.5-fold lower: 144 nM for the first, 357 nM for the second. The first is the more potent here.

First: Ac-[αAllylPro]N[Cha][B5(4)]DQQAFN[PyrS2″]F[Bta][hSer]-NH2 (staple 1-4, 4-11) [I-2067]
Second: Ac-[αAllylPro]N[Cha][B5(4)]DQ[Lys(iPr)]AFN[PyrS2″]F[Bta]F-NH2 (staple 1-4, 4-11) [I-2068]
The IC50 of the first is 1.9-fold lower: 180 nM for the first, 338 nM for the second.

Ac-[αAllylPro]N[Cha][B5(4)]DQHAFN[PyrS2″]F[Bta]A-NH2 (staple 1-4, 4-11) [I-2069] and Ac-[αAllylPro]N[Cha][B5(4)]DQQAFN[PyrS2″]F[Bta]A-NH2 (staple 1-4, 4-11) [I-2070] are within 1.5-fold of each other in IC50: 256 nM for the first, 190 nM for the second.

target: full-length beta-Catenin (Uniprot ID P35222) (Homo sapiens (Human)) (UniProt P35222); assay: fluorescence polarization competition; 10 nM full-length beta-catenin + 10 nM 5FAM-TCF4(10-53) probe; peptide titrated 10 uM to 5 nM
Target sequence in this assay (P35222 2-781 limits assumed): as above

Going from Ac-[αAllylPro]D[tBuAla][B5(3)]N[Phe(3-COOH)]AAFT[PyrS2″][3Thi][Bta]Q-NH2 (staple 1-4, 4-11) [I-2336] to Ac-[αAllylPro]D[tBuAla][B5(31)]NTAAFT[PyrS2″][3Thi][Bta]H-NH2 (staple 1-4, 4-11) [I-2337], the IC50 rises from 19 nM to 311 nM (16-fold).

Compared with Ac-[αAllylPro]D[tBuAla][B5(3)]NT[Aib]AFN[PyrS2″][3Thi][Bta]Q-NH2 (staple 1-4, 4-11) [I-2338], Ac-[αAllylPro]D[tBuAla][B5(31)]NTA[Aib]FN[PyrS2″][3Thi][Bta]Q-NH2 (staple 1-4, 4-11) [I-2339] is 45-fold higher in IC50: 63 nM for the first, 2820 nM for the second. The first is the more potent here.

Compared with Ac-[αAllylPro]N[Cha][B5(31)]D[hSer][Lys(iPr)]AFL[PyrS2″]F[Bta]Q-NH2 (staple 1-4, 4-11; also: staple isomer, earlier eluting HPLC peak) [I-2344], Ac-[αAllylPro]N[Cha][B5(31)]D[hSer][Lys(iPr)]AFL[PyrS2″]F[Bta]Q-NH2 (staple 1-4, 4-11) [I-2345] is 2.2-fold higher in IC50: 586 nM for the first, 1270 nM for the second. The first is the more potent here.

Compared with Ac-[αAllylPro]N[Cha][B5(31)]DK[Lys(iPr)]AFL[PyrS2″]F[Bta]Q-NH2 (staple 1-4, 4-11; also: staple isomer, earlier eluting HPLC peak) [I-2346], Ac-[αAllylPro]N[Cha][B5(31)]DK[Lys(iPr)]AFL[PyrS2″]F[Bta]Q-NH2 (staple 1-4, 4-11) [I-2347] is 13-fold higher in IC50: 422 nM for the first, 5630 nM for the second.

Going from Ac-[αAllylPro]N[Cha][B5(31)]DH[Lys(iPr)]AFL[PyrS2″]F[Bta]Q-NH2 (staple 1-4, 4-11; also: staple isomer, earlier eluting HPLC peak) [I-2348] to Ac-[αAllylPro]N[Cha][B5(31)]DH[Lys(iPr)]AFL[PyrS2″]F[Bta]Q-NH2 (staple 1-4, 4-11) [I-2349], the IC50 rises from 179 nM to 1160 nM (6.5-fold). The first is the more potent here.

Compared with Ac-[αAllylPro]N[Cha][B5(3)]DQ[Lys(iPr)]AFL[PyrS2″]F[Bta]K-NH2 (staple 1-4, 4-11) [I-2350], Ac-[αAllylPro]N[Cha][B5(4)]DQ[Lys(iPr)]AFL[PyrS2″]F[Bta]H-NH2 (staple 1-4, 4-11) [I-2351] is 3-fold higher in IC50: 63 nM for the first, 187 nM for the second.

With Ac-[αAllylPro]N[Cha][B5(4)]DQ[Lys(iPr)]AFL[PyrS2″]F[Bta]A-NH2 (staple 1-4, 4-11) [I-2352] the IC50 was 211 nM.

target: full-length beta-Catenin (Uniprot ID P35222) (Homo sapiens (Human)) (UniProt P35222); assay: fluorescence polarization competition; peptide titrated against full-length beta-catenin + 5FAM-TCF4(10-53)
Target sequence in this assay (P35222 whole entry, the tested form may be a part): as the sequence (P35222 whole entry, the tested form may be a part) above

Ac-[αAllylPro]D[tBuAla][B5(3)]D[TfeGA]AAFN[S8][3Thi][Bta]H-NH2 (staple 1-4, 4-11) [I-705] and Ac-[αAllylPro]D[Cha][B5(3)]D[TfeGA]AAFN[S8][3Thi][Bta]H-NH2 (staple 1-4, 4-11) [I-709] are within 1.5-fold of each other in IC50: 58 nM for the first, 54 nM for the second.

Going from Ac-[αAllylPro]D[tBuAla][B5]DEAAFN[S8][3Thi][Bta]-NH2 (staple 1-4, 4-11) [I-718] to Ac-[αAllylPro]D[tBuAla][B5]DEAAFN[S8][3Thi][Bta]-NH2 (staple 1-4, 4-11) [I-719], the IC50 falls from 82 nM to 38 nM (2.2-fold). The second is the more potent here.

Compared with Ac-[αAllylPro]DI[B5]DEAAFN[S8][3Thi][Bta]-NH2 (staple 1-4, 4-11) [I-720], Ac-[αAllylPro]DI[B5]DEAAFN[S8][3Thi][Bta]-NH2 (staple 1-4, 4-11) [I-721] is 1.6-fold lower in IC50: 75 nM for the first, 46 nM for the second.

Going from Ac-[αAllylPro]DI[B5]DEAA[Cha]Q[S8]F[Bta]Q-NH2 (staple 1-4, 4-11) [I-722] to Ac-[αAllylPro]DI[B5]DEAA[Bip]Q[S8]F[Bta]Q-NH2 (staple 1-4, 4-11) [I-723], the IC50 rises from 1130 nM to 3830 nM (3.4-fold). The first is the more potent here.

Ac-[αAllylPro]DI[B5]DEAA[Dip]Q[S8]F[Bta]Q-NH2 (staple 1-4, 4-11) [I-725] and Ac-[αAllylPro]DI[B5]DEAA[Phg]Q[S8]F[Bta]Q-NH2 (staple 1-4, 4-11) [I-726] are the same in IC50: 5000 nM for the first, 5000 nM for the second.
